Test results: paper PMC10511788 (2023)

Target: M1-linked di-ubiquitin (UniProt P0CG48 1-76; P0CG48 1-76)
Assay: ITC

B1: mouse HOIL-1L NZF domain (residues Pro192-Gln250) T207E (domain or fragment)
chain: GPLGSPEPVGWQCPGCTFINKPERPGCEMCCRARPETYQIPASYQPDEEERARLAGEEEALRQYQQ
Question: With B1 as the binder, how does the Kd read?
Answer: The Kd was 15.9 µM.
